Legend:
[1] = biological target: T1, angiotensin I-converting enzyme (ACE, EC 3.4.15.1) from rabbit lung (rabbit, UniProt P12822 34-1310); assay: cell-based or functional assay
T1 sequence (looked up): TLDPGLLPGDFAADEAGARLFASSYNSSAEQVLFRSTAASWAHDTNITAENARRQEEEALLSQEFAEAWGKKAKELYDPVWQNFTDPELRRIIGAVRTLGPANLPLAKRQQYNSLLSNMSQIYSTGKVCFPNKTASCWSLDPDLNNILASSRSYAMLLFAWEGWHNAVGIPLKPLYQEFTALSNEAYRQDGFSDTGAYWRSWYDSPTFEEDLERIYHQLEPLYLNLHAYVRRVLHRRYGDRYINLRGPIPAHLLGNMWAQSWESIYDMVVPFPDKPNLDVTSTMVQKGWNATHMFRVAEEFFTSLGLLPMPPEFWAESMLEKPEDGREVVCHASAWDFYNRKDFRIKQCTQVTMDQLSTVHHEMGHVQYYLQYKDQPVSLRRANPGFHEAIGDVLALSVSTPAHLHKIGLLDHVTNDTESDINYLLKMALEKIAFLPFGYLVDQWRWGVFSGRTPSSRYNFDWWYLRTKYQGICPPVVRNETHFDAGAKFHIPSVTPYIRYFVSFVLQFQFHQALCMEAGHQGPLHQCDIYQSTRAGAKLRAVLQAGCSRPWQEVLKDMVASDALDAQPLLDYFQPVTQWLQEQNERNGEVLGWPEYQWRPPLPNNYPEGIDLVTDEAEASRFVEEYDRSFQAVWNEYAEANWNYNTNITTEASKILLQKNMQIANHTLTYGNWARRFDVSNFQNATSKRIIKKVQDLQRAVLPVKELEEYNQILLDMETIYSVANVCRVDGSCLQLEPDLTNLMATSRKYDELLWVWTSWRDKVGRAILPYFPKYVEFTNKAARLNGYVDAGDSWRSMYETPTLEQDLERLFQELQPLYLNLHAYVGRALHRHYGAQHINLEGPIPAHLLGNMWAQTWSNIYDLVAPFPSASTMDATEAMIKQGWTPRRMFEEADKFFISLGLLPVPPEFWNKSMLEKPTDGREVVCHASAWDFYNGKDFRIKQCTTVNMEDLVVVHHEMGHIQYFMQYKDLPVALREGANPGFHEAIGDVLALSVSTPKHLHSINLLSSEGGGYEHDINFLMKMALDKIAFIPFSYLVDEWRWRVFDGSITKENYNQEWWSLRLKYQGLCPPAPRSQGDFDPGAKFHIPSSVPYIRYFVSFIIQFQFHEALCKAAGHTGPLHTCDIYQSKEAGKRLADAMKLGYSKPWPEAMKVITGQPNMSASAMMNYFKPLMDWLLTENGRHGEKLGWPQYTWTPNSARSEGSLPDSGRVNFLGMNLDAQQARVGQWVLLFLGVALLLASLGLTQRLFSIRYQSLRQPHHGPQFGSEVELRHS

[2] = biological target: T1, angiotensin I-converting enzyme (ACE, …); assay: cell-based or functional assay; remark: listed apart in the source

IC50 of ACE inhibitory activity, calculated from the molecular mass of ARL/I and Table 2 [1]: 126 µM
IC50 of ACE inhibitory activity (HHL substrate, hippuric acid at 228 nM) [2]: 45 µg/mL
Binder: ARL [ACE inhibitory peptide Ala-Arg-Leu/Ile (ARL/I)]

— publication PMC9861681, “Preparation, Purification and Characterization of Antibacterial and ACE Inhibitory Peptides from Head Protein Hydrolysate of Kuruma Shrimp, Marsupenaeus japonicus” (Molecules, 2023)
